Results on six molecules are retold here after US20210395392A1 (Bristol-Myers Squibb, published 2021).

For assay [1], the target named is T1, Mouse MerTK on mMerTK-expressing cells (mouse, UniProt Q60805 19-994).
T1 construct: Receptor construct of the signaling assay is not described
T1 sequence: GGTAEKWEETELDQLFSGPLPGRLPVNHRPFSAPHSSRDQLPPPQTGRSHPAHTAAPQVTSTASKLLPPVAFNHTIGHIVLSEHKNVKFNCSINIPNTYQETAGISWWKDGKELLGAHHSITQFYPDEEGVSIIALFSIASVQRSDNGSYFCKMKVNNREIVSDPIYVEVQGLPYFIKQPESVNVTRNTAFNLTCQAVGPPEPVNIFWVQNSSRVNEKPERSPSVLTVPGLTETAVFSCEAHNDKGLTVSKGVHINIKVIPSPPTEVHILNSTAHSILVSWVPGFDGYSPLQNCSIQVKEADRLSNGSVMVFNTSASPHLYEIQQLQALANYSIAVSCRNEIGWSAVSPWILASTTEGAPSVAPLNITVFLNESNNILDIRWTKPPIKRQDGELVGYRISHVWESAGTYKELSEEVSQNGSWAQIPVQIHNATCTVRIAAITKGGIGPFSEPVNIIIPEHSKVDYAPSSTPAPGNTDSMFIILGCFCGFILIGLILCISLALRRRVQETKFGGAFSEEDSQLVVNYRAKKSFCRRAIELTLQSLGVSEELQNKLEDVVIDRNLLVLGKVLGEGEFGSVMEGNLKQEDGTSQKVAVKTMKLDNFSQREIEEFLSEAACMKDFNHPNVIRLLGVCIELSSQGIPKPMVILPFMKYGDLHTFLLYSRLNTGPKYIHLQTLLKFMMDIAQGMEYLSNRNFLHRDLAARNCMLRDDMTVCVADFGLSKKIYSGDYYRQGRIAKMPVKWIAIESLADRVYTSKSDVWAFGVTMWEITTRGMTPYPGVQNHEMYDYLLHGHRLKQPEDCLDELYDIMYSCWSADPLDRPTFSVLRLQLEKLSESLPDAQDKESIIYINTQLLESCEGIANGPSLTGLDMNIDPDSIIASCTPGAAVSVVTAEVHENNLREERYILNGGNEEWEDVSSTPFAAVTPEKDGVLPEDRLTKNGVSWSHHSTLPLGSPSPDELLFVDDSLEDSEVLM
Put plainly: binding to mMerTK-expressing cells; SPR not run.

The target of assay [2] is T2, Human MerTK on hMerTK-expressing cells (human, UniProt Q12866 21-999).
T2 sequence: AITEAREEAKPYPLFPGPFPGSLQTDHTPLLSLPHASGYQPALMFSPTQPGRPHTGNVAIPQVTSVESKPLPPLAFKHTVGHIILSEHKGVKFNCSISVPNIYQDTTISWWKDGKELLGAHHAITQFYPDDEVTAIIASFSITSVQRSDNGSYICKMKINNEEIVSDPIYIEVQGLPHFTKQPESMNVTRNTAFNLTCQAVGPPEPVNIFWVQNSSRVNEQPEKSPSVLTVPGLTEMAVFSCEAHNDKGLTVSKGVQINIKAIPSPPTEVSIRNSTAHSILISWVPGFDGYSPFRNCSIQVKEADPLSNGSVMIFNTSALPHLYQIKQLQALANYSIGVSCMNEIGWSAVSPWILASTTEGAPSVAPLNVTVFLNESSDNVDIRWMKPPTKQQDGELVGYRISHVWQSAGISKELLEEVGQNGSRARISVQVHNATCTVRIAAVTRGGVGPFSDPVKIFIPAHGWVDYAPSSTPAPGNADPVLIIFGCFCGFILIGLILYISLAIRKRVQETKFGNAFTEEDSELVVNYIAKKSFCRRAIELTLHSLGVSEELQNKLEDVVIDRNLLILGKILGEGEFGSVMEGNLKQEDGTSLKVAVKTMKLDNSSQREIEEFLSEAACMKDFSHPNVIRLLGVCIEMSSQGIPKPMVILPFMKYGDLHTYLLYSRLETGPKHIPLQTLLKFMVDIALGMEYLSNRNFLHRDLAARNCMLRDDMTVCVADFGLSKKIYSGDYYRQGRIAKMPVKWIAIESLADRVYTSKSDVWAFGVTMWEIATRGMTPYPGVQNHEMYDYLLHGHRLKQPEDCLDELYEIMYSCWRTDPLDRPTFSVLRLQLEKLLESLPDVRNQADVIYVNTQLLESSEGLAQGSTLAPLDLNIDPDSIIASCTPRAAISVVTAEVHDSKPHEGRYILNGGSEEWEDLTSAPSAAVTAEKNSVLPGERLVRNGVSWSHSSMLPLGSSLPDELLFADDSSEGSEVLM
Put plainly: cell-based or functional assay.

The target in assay [3] is T3, Recombinant soluble extracellular domain of human MerTK (human, UniProt Q12866 21-505).
T3 construct: SPR analyte; also called hMerTK
T3 sequence: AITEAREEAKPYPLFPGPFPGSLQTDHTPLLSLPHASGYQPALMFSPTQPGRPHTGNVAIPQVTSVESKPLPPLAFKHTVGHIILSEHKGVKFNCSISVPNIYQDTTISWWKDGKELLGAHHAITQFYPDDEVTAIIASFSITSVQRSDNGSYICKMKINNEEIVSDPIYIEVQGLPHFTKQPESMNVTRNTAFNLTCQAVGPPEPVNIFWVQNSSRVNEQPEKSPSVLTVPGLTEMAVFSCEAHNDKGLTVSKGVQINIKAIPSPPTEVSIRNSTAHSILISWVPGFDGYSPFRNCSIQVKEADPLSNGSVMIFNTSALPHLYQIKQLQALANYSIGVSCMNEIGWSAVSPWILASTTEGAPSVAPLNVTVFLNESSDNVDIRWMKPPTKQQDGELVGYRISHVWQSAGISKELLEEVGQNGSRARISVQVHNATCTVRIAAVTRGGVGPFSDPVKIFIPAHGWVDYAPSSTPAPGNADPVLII
Put plainly: SPR, mAb captured, soluble MerTK ECD as analyte, 37 C. Here is the method:
MerTK Abs were captured on the chip. Recombinant soluble forms of the extracellular domains of human, cynomolgus monkey, and mouse MerTK polypeptide were injected as analytes at multiple concentrations each. The resulting sensorgrams were double-referenced and fitted to a 1:1 Langmuir binding model with mass transport.
A general note: Surface plasmon resonance follows binding to a sensor surface in real time, without labels.

Numbering of substitutions follows the chain as printed.

B1: HuMAb 4K10 (antibody, human IgG1, kappa, V domains shown)
VH: QVQLQQWGAGLLKPSETLSLTCAVYGGSFSGYYWSWLRQPPGKGLEWIGEISHSGSTNYNPSLKSRVTISVDTSKNQFSLKLSSVTAADTAVYYCARALSRYWYFDLWGRGTLVTVSS
VL: EIVLTQSPATLSLSPGERATLSCRASQSASNYLAWYQQKPGQAPRLLIYDASNRATGIPARFSGSGSGTDFTLTISSLEPEDFAVYYCYQRSQWPISFGQGTRLEIKR
notes: Human anti-hMerTK mAb, Bin 3
By Kd is commonly meant the equilibrium constant for the complex coming apart. What is called koff is the first-order rate constant of dissociation. By kon is commonly meant the rate constant with which the complex forms. Turning to B1, the binding result in assay [1] is reported as “no binding”. In assay [2], the “Inhibition of Efferocytosis IC50” value was over 10 nM and the “Signaling Assay, hMerTK with Gas6, pSTAT1 IC50 (nM)” value (“Signaling Assay, hMerTK with Gas6” for short) is 5.42 nM. Besides, in assay [3], the Kd was 27.8 nM, the koff worked out at 0.00336 s⁻¹, the kon was determined as 121000 M⁻¹ s⁻¹ and the t1/2 stood at 3.4 min.

B2: HuMAb 25J60 (antibody, human IgG1, kappa, V domains shown)
VH: QVQLVQSGAEVKKPGASVKVSCKTSGNTQIRYYMYWVRQAPGQGLEWMGILNPNQDQTTYAQKFQGRVTMTRDTSTSTVYMELSSLRSEDTAVYYCATTYRYYMDVWGQGTTVTVSS
VL: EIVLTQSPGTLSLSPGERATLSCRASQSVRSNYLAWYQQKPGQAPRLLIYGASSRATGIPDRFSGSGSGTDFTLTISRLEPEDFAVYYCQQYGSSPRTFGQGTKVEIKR
notes: Human anti-hMerTK mAb, Bin 2, derived from HuMAb 25B10 by optimization
Consider B2, for which the binding result in assay [1] is “no binding”. In assay [2], the “Inhibition of Efferocytosis IC50” value worked out at 0.051 nM; the “Signaling Assay, hMerTK with Gas6” value turned out to be 0.093 nM; the “Signaling Assay, hMerTK without Gas6, pSTAT1 IC50 (nM)” value (“Signaling Assay, hMerTK without Gas6” for short) is over 100 nM. Besides, in assay [3], the Kd worked out at 2.3 nM, the koff amounted to 0.000975 s⁻¹, the kon is 421000 M⁻¹ s⁻¹ and the t1/2 came to 11.9 min.

B3: HuMAb 25J80 (antibody, human IgG1, kappa, V domains shown)
VH: B2 VH with N27R, Q29F, Y35H, L51I, N52W, Q55G, R101K, Y103A
VL: EIVLTQSPGTLSLSPGERATLSCRASQSVRSNYLAWYQQKPGQAPRLLIYGASSRATGIPDRFSGSGSGTDFTLTISRLEPEDFAVYYCQQYESPPRTFGQGTKVEIKR
notes: as for B2
As to B3, in assay [1], the binding result is “no binding”. Besides, in assay [2], the “Inhibition of Efferocytosis IC50” value was 0.093 nM; the “Signaling Assay, hMerTK with Gas6” value amounted to 0.227 nM; the “Signaling Assay, hMerTK without Gas6” value was over 100 nM. For the same molecule, in assay [3], the Kd was determined as 4.1 nM, the koff came out at 0.00123 s⁻¹, the kon amounted to 297000 M⁻¹ s⁻¹ and the t1/2 is 9.6 min.

B4: HuMAb 1B4 (antibody, human IgG1, kappa, V domains shown)
VH: QLQLQESGPGLVKPSETLSLTCAVSGYSISSGNYWGWIRQSPGKGLEWIGSVDHSGSTYYSPSLKSRVTISVDTSKNQFSLKLNSVTAADTADYYCARNTMIRGVMDWFDPWGQGTLVTVSS
VL: AIQLTQSPSSLSASVGDRVTITCRASQGISSALAWYQQKPGKAPKVLIYDASSLESGVPSRFSGSGSGTDFTLTISSLQPEDFATYYCQQFRSYPTFGQGTKVEIKR
notes: Human anti-hMerTK mAb, Bin 1
B4: the binding result in assay [1] was “no binding”. Also, in assay [2], the “Inhibition of Efferocytosis IC50” value was found to be 0.072 nM; the “Signaling Assay, hMerTK with Gas6” value was 0.33 nM; the “Signaling Assay, hMerTK without Gas6” value is over 100 nM. In assay [3], the Kd was 34.4 nM, the koff amounted to 0.00844 s⁻¹, the kon came to 250000 M⁻¹ s⁻¹ and the t1/2 is 1.4 min.

B5: HuMAb 22I16 (antibody, human IgG1, kappa, V domains shown)
VH: EVQLVESGGGLVQPGGSLRLSCAASGFTFSSYSMNWVRQAPGKGLEWVSYIISGSDTIFYADSVKGRFTISRDNAKNSLYLQMNSLRDEDTAVYYCARDETVVRGVINYFDYWGQGTLVTVSS
VL: B4 VL with A25S, V46L, R92I, K102R, V103L
notes: Human anti-hMerTK mAb, Bin 1; also called 22116
Take B5: in assay [1], the binding result is “no binding”. Besides, in assay [2], the “Inhibition of Efferocytosis IC50” value was determined as 0.352 nM; the “Signaling Assay, hMerTK with Gas6” value came out at 3.41 nM; the “Signaling Assay, hMerTK without Gas6” value was over 100 nM. For the same molecule, in assay [3], the Kd worked out at 10.6 nM, the koff is 0.000775 s⁻¹, the kon amounted to 73500 M⁻¹ s⁻¹ and the t1/2 worked out at 14.9 min.

B6: HuMAb 8N42 (antibody, V domains shown)
VH: QVQLQQWGAGLLKPSETLSLTCAVYGGSFSIYYWSWIRQPPGKGLELIGEINDEGNTNYNPSLKSRVTISVDTSKNQFSLKLSSVTAADTAVYYCARGGTGDIHAFDIWGQGTMVTVSS
VL: DIQMTQSPSSLSASVGDRVTITCRASQGISKWLAWYQQKPEKAPKSLIYAASSLQSGVPSRFSGSGSGTDFTLTISSLQPEDFATYYCQQYNSYPWTFGQGTKVEIKR
notes: Human anti-hMerTK mAb, Bin 1
Consider B6, for which the binding result in assay [1] was “no binding”. In assay [2], the “Inhibition of Efferocytosis IC50” value was found to be 0.047 nM; the “Signaling Assay, hMerTK with Gas6” value was 0.572 nM; the “Signaling Assay, hMerTK without Gas6” value is over 100 nM. Besides, in assay [3], the Kd was 5.7 nM, the koff is 0.00168 s⁻¹, the kon was determined as 299000 M⁻¹ s⁻¹ and the t1/2 was found to be 6.9 min.
